Data as given in publication PMC5584228.

Experiments:
[1] = target: Fc hole chain with F405K (Y349C/T366S/L368A/Y407V/F405K), of mutants KiHss-Kh, KiHss-AkKh and KiHss-KkKh (human); experiment: non-reducing SDS-PAGE of co-expressed chains; scFv-Fc chain (A) and Fc chain (B) co-transfected 1:1 in HEK 293H; secreted Fcs purified by Protein A; disulphide-linked dimers AA, AB and BB told apart by size and quantified by densitometry (ImageLab)
[2] = target: Fc hole chain of mutant KiHss (Y349C/T366S/L368A/Y407V) (human); experiment: as above

Row | heterodimeric Fc (AB), percent of total Fcs [1] | heterodimeric Fc (AB), percent of total Fcs [2] | Substance
1 | 94% |  | scFv-Fc knob chain of mutant KiHss-AkKh (S354C/T366W/K409A) (Fc fusion)
2 |  | > 80% | scFv-Fc knob chain with F405K (S354C/T366W/F405K), of mutants KiHss-Kk and KiHss-KkKh (Fc fusion)
3 | > 80% | 73% | scFv-Fc knob chain of mutant KiHss (S354C/T366W) (Fc fusion)
